From the supplement of paper PMC11908140

B1: library; numbered along this chain (parent)
chain: MRKPRAAVGSGHRKQAASQEGRQKHAKNNSQAKPSACDGLARQPEEVVLQASVSSYHLFRDVAEVTAFRGSLLSWYDQEKRDLPWRRRAEDEMDLDRRAYAVWVSEVMLQQTQVATVINYYTGWMQKWPTLQDLASASLEEVNQLWAGLGYYSRGRRLQEGARKVVEELGGHMPRTAETLQQLLPGVGRYTAGAIASIAFGQATGVVDGNVARVLCRVRAIGADPSSTLVSQQLWGLAQQLVDPARPGDFNQAAMELGATVCTPQRPLCSQCPVESLCRARQRVEQEQLLASGSLSGSPDVEECAPNTGQCHLCLPPSEPWDQTLGVVNFPRKASRKPPREESSATCVLEQPGALGAQILLVQRPNSGLLAGLWEFPSVTWEPSEQLQRKALLQELQRWAGPLPATHLRHLGEVVHTFSHIKLTYQVYGLALEGQTPVTTVPPGARWLTQEEFHTAAVSTAMKKVFRVYQGQQPGTCMGSKRSQVSSPCSRKKPRMGQQVLDNFFRSHISTDAHSLNSAAQ

Variants of: B1
Assay: 8OG:A repair function score (normalized; synonymous = 0, nonsense = -1) (normalized log-likelihood score); higher = more repair activity (WT-like)
Settings: with 8OG:A DNA repair reporter (GFP) in HEK-293 MUTYH KO cells
Procedure: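 Saturation mutagenesis (NNN codon scan) of the MUTYH cDNA (521-aa nuclear isoform NM_001048174.1 / NP_001041639), stably expressed under doxycycline induction in HEK-293 MUTYH knockout cells. Cells were co-transfected with an 8OG:A-bearing GFP repair reporter plus mCherry and sorted 72 h later into GFP+ and GFP− bins, three replicates per tile. The Rosace log2 enrichment (GFP+ vs GFP−) was converted per tile to a normalized function score with synonymous variants centered at 0 and nonsense variants (codons 1-471) at -1; low-abundance variants were removed.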

Row | Variant | 8OG:A repair function score
1 | P299E | -0.036
2 | S344D | -0.196
3 | A519E | 0.0285
4 | Q397M | -0.301
5 | P404N | 0.336
6 | W447F | -0.355
7 | P474M | 0.0118
8 | V165T | -0.312
9 | A196Q | -0.897
10 | A199R | -1.16
11 | L290P | -0.0572
12 | R336C | -0.0115
13 | D512Y | -0.0038
14 | D224N | -0.918
15 | D224A | -0.954
16 | P383T | 0.0211
17 | V65A | -0.138
18 | Q110G | 0.0252
19 | G309M | -0.0498
20 | S74Y | 0.00544
21 | E92V | -0.0677

Row | Variant | 8OG:A repair function score
22 | A135S | -0.0157
23 | I421P | -1.15
24 | Y425W | -0.328
25 | Y425L | -0.213
26 | P320K | -0.1
27 | V362N | -0.669
28 | V427F | -1.1
29 | C278K | -1.26
30 | K3D | -0.233
31 | K3F | 0.00169
32 | Q286L | -0.0175
33 | V242T | -0.488
34 | Y152Q | -0.592
35 | S335P | -0.028
36 | S335L | -0.0705
37 | P44F | -0.202
38 | C262H | -1.1
39 | K463G | -0.303
40 | Q265I | -0.0274
41 | G297D | -0.0132
42 | G297R | -0.0667

Row | Variant | 8OG:A repair function score
43 | V414K | -0.609
44 | R81K | -0.209
45 | P488R | 0.0168
46 | I195L | -0.287
47 | S343C | 0.00733
48 | C477A | -0.00821
49 | T324F | 0.00371
50 | T324C | -0.0556
51 | L373Q | -0.26
52 | Q240S | -0.945
53 | V48G | 0.0279
54 | E319K | -0.0997
55 | L169Y | -0.104
56 | V458W | -0.709
57 | C311E | -0.757
58 | F418P | -0.719
59 | H172G | -0.216
60 | A115M | -0.164
61 | T406N | 0.0152
62 | A162P | -1.19
63 | R246K | -0.495

Row | Variant | 8OG:A repair function score
64 | F59N | -0.954
65 | M255R | -1.03
66 | L315G | -0.123
67 | A99F | -1.14
68 | M93S | -0.0236
69 | L408K | -0.858
70 | G471K | 0.0191
71 | G471H | 0.00339
72 | Q43I | 0.0991
73 | E106L | -1.25
74 | E106H | -1.74
75 | R389A | -0.241
76 | H410T | -0.322
77 | H410W | -0.367
78 | E160C | -0.0918
79 | L180F | -0.576
80 | Q473M | 0.0265
81 | I118N | -0.0549
82 | G444F | -0.32
83 | E302T | -0.238
84 | V465N | -0.54
